Data taken from publication PMC7858582.

How the values were obtained:
[1] = target: soluble recombinant mouse BAFF (mouse) (UniProt Q9WU72)
[2] = target: soluble recombinant mouse BAFF (mouse) (UniProt Q9WU72); remark: listed apart in the source

Chain of UniProt Q9WU72 (Q9WU72 127-309): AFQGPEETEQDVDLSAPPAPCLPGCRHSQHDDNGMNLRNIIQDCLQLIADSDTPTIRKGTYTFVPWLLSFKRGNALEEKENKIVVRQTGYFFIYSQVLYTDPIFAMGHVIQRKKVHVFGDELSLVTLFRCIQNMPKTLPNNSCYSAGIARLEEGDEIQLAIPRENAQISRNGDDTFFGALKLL

Row | Binder | percent of NgR1+ or NgR3+ B-cells isolated from spinal cord of EAE ngr1+/+ mice in S phase (BrdU/7AAD flow cytometry) after 50 ng/mL rBAFF pre-incubated with excess rBAFF-R [1] [%] | percent of NgR1+ or NgR3+ B-cells isolated from spinal cord of EAE ngr1+/+ mice in S phase (BrdU/7AAD flow cytometry) after 50 ng/mL rBAFF pre-incubated with excess NgR-Fc [1] [%] | percent of isolated spinal cord B-cells staying in the G0/G1 phase after rBAFF pre-incubated with excess NgR-Fc [1] [%] | percent of B-cells isolated from spleen entering the S phase after rBAFF pre-incubated with excess NgR-Fc [2] [%] | percent of B-cells isolated from spleen halted in the G0/G1 phase after rBAFF pre-incubated with excess NgR-Fc [2] [%]
1 | recombinant BAFF-R (receptor) MGARRLRVRSQRSRDSSVPTQCNQTECFDPLVRNCVSCELFHTPDTGHTSSLEPGTALQPQEGSALRPDVALLVGAPALLGLILALTLVGLVSLVSWRWRQQLRTASPDTSEGVQQESLENVFVPSSETPHASAPTWPPLKEDADSALPRHSVPVPATELGSTELVTTKTAGPEQ | 27.7 | – | – | – | –
2 | NgR1-Fc (Fc fusion) CPGACVCYNEPKVTTSCPQQGLQAVPTGIPASSQRIFLHGNRISHVPAASFQSCRNLTILWLHSNALARIDAAAFTGLTLLEQLDLSDNAQLHVVDPTTFHGLGHLHTLHLDRCGLRELGPGLFRGLAALQYLYLQDNNLQALPDNTFRDLGNLTHLFLHGNRIPSVPEHAFRGLHSLDRLLLHQNHVARVHPHAFRDLGRLMTLYLFANNLSMLPAEVLMPLRSLQYLRLNDNPWVCDCRARPLWAWLQKFRGSSSEVPCNLPQRLADRDLKRLAASDLEGCAVASGPFRPIQTSQLTDEELLSLPKCCQPDAADKASVLEPGRPASAGNALKGRVPPGDTPPGNGSGPRHINDSPFGTLPSSAEPPLTALRPGGSEPPGLPTTGPRRRPGCSRKNRTRSHCRLGQAGSGASGTGDAEGS | – | 20.6 | 55.8 | 8 | 85.5
